Laboratory results from patent publication US20030158387A1 (PHARIS BIOTEC, published 2003).
Like-named read-outs stand apart in the source and are kept apart here. *: point of attachment. Nonanoyl = CCCCCCCCC(=O)*

T1: chemokine receptor CCR3 (UniProt P51677 1-355, limits assumed)
T1 construct: whole, on cells
T1 sequence (looked up): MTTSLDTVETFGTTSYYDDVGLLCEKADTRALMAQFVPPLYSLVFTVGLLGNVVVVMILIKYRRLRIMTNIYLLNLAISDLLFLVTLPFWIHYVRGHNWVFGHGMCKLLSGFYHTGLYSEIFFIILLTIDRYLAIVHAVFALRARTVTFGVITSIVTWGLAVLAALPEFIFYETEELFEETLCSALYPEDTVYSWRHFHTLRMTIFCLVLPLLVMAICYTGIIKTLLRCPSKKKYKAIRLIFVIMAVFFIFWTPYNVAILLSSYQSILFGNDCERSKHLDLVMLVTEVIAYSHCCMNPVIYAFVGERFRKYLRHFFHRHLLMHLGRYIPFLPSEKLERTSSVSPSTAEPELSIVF

B1: HCC-1, residues 6-74 (ligand)
chain: SSRGPYHPSECCFTYTTYKIPRQRIMDYYETNSQCSKPGIVFITKRGHSVCTNPSDKWVQDYIKDMKEN
notes: also called HCC-1[6-74]
B2: HCC-1[12-74] (ligand)
chemokine chain: HPSECCFTYTTYKIPRQRIMDYYETNSQCSKPGIVFITKRGHSVCTNPSDKWVQDYIKDMKEN
notes: Not in the list MOLECULES; also called PHC-2
B3: HCC-1[10-74] (ligand)
chain: PYHPSECCFTYTTYKIPRQRIMDYYETNSQCSKPGIVFITKRGHSVCTNPSDKWVQDYIKDMKEN
notes: Synthetic, oxidatively folded
B4: processed human chemokine PHC-1 (HCC-1[9-74]) (ligand)
chain: GPYHPSECCFTYTTYKIPRQRIMDYYETNSQCSKPGIVFITKRGHSVCTNPSDKWVQDYIKDMKEN
notes: Purified from human hemofiltrate or made by tryptic digestion of HCC-1 (1-74)
B5: NNY-HCC-1[10-74] (nonanoyl-HCC-1[10-74]) (ligand)
chain: Nonanoyl-PYHPSECCFTYTTYKIPRQRIMDYYETNSQCSKPGIVFITKRGHSVCTNPSDKWVQDYIKDMKEN
modifications: ends and bridges not checked
notes: Chemokine compound analog, synthetic
B6: HCC-1[8-74] (ligand)
chain: RGPYHPSECCFTYTTYKIPRQRIMDYYETNSQCSKPGIVFITKRGHSVCTNPSDKWVQDYIKDMKEN
notes: Synthetic, oxidatively folded
B7: HCC-1[7-74] (ligand)
chain: SRGPYHPSECCFTYTTYKIPRQRIMDYYETNSQCSKPGIVFITKRGHSVCTNPSDKWVQDYIKDMKEN
notes: Synthetic, oxidatively folded
B8: HCC-1[11-74] (ligand)
chain: YHPSECCFTYTTYKIPRQRIMDYYETNSQCSKPGIVFITKRGHSVCTNPSDKWVQDYIKDMKEN
notes: Synthetic, oxidatively folded
B9: RANTES (ligand, UniProt P13501 24-91, looked up)
chain: SPYSSDTTPCCFAYIARPLPRAHIKEYFYTSGKCSNPAVVFVTRKNRQVCANPEKKWVREYINSLEMS
modifications: ends and bridges not checked; also: 125I-labelled where used as tracer, unlabelled in functional assays

What was measured:
[1] = target: T2, chemokine receptor 5 (CCR5) (human, UniProt P51681 1-352); test: competition radioligand binding, membranes of CHO-K1 cells expressing CCR5, tracer [125I]-MIP-1 beta
T2 construct: whole, on cells
T2 sequence (P51681 whole entry): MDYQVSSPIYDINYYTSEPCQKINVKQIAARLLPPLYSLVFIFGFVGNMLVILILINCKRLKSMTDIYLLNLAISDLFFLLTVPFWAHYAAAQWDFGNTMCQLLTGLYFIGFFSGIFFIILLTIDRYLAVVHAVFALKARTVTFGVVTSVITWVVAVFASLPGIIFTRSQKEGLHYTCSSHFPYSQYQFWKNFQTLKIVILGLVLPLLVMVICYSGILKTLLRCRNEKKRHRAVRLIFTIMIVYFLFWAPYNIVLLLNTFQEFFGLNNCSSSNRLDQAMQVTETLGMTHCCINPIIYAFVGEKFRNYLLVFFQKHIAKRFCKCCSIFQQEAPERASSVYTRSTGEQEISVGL

[2] = target: T2, chemokine receptor 5 (CCR5); test: cell-based or functional assay
[3] = target: T2, chemokine receptor 5 (CCR5); test: competition radioligand binding, membranes of CHO-K1 cells expressing CCR5, tracer [125I]-MIP-1 beta; mean ± SEM
[4] = target: T2, chemokine receptor 5 (CCR5); test: cell-based or functional assay; remark: listed apart in the source
[5] = target: T2, chemokine receptor 5 (CCR5); test: cell-based or functional assay; remark: listed apart in the source
[6] = target: T2, chemokine receptor 5 (CCR5); test: competition radioligand binding, membranes of CHO-K1 cells expressing CCR5, tracer [125I]-MIP-1 beta; remark: listed apart in the source
chemokine receptor CCR3 [7] = target: T1, chemokine receptor CCR3; test: competition with 125I-Eotaxin for binding to CCR3
Experimental: (§1) For determination of its binding properties, CHO-K1 cells were used which were stably transfected with the chemokine receptors CCR1, CCR3, CCR5. Therefore, crude membrane extracts prepared from the CHO-K1 cell lines expressing the various GPC were used in radioligand binding assays. Competition binding assays were performed in Minisorp tubes (Nunc, Roskilde, Denmark) in a total volume of 100 μl containing 0.11 nM iodinated ligand as tracer, variable concentrations of competitors and defined amount of membranes. Total binding was measured in the absence of competitor and non-specific binding was measured with a 100-fold excess, of unlabelled ligand. Samples were incubated for 90 minutes at 25° C. then filtered through GF/B filters presoaked in 0.3% polyethylenenimine. Filters were counted in a gamma scintillation counter (Packard). Binding parameters were determined with the PRISM software (Graphpad software, San Diego, Calif.) using non-linear regression applied to a one site competition model.

[8] = target: T2, chemokine receptor 5 (CCR5); test: competition with 125I-MIP-1 alpha, membranes of CHO-K1 cells expressing CCR5, filtration, one site competition model; 125I-MIP 1-alpha tracer, CCR5 membranes
Experimental: as §1

chemokine receptor CCR3 [9] = target: T1, chemokine receptor CCR3; test: cell-based or functional assay
[10] = target: T2, chemokine receptor 5 (CCR5); test: competition with 125I-MIP-1 alpha for binding to CCR5
Experimental: as §1

chemokine receptor CCR3 [11] = target: T1, chemokine receptor CCR3; test: competition with 125I-Eotaxin, membranes of CHO-K1 cells expressing CCR3, filtration, one site competition model; 125I-Eotaxin tracer, CCR3 membranes
Experimental: as §1

Binder	IC50 (read off the curve) [1] [nM]	EC50 (aequorin luminescence, CHO-K1 cells expressing CCR5) [2] [nM]	IC50 [3] [nM]	EC50 (read off the curve) [4] [nM]	EC50 (read off the curve) [5] [nM]	IC50 (read off the curve) [6] [nM]	also measured
B1	~20	402	21.6				
B2			4.29				
B3	~0.1	3.48	0.065	~6	~6	~0.1	
B4	~0.1	6.45	0.0961	~7	~7	~0.1	Ki (chemokine receptor CCR3 [7]): 2.7 nM; IC50 [8]: 0.04 nM; EC50 of receptor activation (aequorin assay) (chemokine receptor CCR3 [9]): 78 nM; Ki [10]: 0.04 nM; IC50 (chemokine receptor CCR3 [11]): 2.7 nM
B5		0.453	0.0343	~1		~0.04	
B6		177	5.9				
B7		165	7.72				
B8		224	1.2				
B9		8.48		~10	~10		
